The test system of one assay is H322 cells. Kind of assay: Xenografts of stable H322 cells in nude mice, tumor growth. Format: in vivo, NMRI nude mice. The note with it: 10 mg/Kg intravenously three times per week, vs Iso-mAb. As to the method:
FIG. 3. COMMD2 is required for UNC5B-induced cell death and tumor suppression. (A): Silencing COMMD2 inhibits UNC5B-induced DNA fragmentation. Stable Hela cells inducible for UNC5B were transfected with two distinct siRNA scramble (siCTRL) or targeting COMMD2 (siCOMMD2-1 and -2). Upon treatment for 18 hours with the indicated concentrations of doxycycline (Dox), DNA fragmentation was evaluated through FACS analysis (n=3, **** p<0.0001, Ordinary two-way ANOVA). Values are given as means±SEM. (B, C, D): Tumor growth inhibition driven by netrin-1 interference necessitates UNC5B and COMMD2. NMRI nude mice were engrafted with stable H322 cells, knock-down for luciferase (sgLUC, used as a non-targeting control), UNC5B (sgUNC5B) or COMMD2 (sgCOMMD2), generated with CRISPR-Cas-9-KRAB strategy. Tumors obtained from nude mice engrafted with stable H322 cells were lysed and gene expression was evaluated by quantitative RT-PCR (n=2-3, *p<0.05, Kruskal-Wallis test with Dunn's multiple comparisons test) (B). After tumor volume reached 50 mm^3, mice were intravenously treated three time per week with anti-netrin-1 (NP137) or control (Iso-mAb) antibodies and tumor growth was evaluated (n=10 mice/group, ^nsp>0.05, *p<0.05, Mann-Whitney test, two-tailed) (C). A histogram illustrating tumor volumes at 35 days after first treatment is indicated in (D) (n=10 mice/group, ^nsp>0.05, *p<0.05, *** p<0.001, Kruskal-Wallis test with uncorrected Dunn's test). (E). Silencing of UNC5B and COMMD2 restrains in vivo NP137-induced apoptosis. After sacrificing the mice, tumors were resected and apoptosis was quantified by immunostaining of active cleaved caspase-3. […]
5-week-old female athymic NMRI nude mice were obtained from Janvier Labs (Saint Bertevin, France). […] Tumor size was measured three times per week with a caliper. Tumor volume was calculated according to the formula v=0.5× (l×w2), where v is volume, l is length, and w is width. […]

Another assay deals with EMT6 cells. Kind of assay: EMT6 syngeneic breast tumor model, tumor growth and survival. Format: in vivo, BALB/c mice. The note with it: NP137 20 mg/Kg loading then 10 mg/Kg i.v.; Venetoclax 5 mg/Kg oral gavage; vs isotypic control antibody. As to the method: FIG. 8. Combining netrin-1 interference and BH3 mimetics inhibits tumor growth in preclinical in vivo and ex vivo models. ((A,B,C): Combining netrin-1 interference and Bcl-2 inhibition restrains tumor growth in a syngeneic breast cancer model. EMT6 cells were engrafted in BALB/c mice and, once tumors reached a volume of 50 mm^3, treated with isotypic (Iso-mAb) or NP137 antibodies and the Bcl-2 inhibitor Venetoclax, as single agents or in combination. Tumor volumes were measured at the indicated days after the first treatment (n=9, ** p<0.01, ordinary two-way ANOVA with Tukey's multiple comparisons test) (A,B). Survival rate was assessed at sacrifice of mice with tumors more than 500 mm^3 (C). (D,E,F): Combined treatment is efficient to induce apoptosis in human ex vivo slices. Cleaved active caspase-3-positive cells were assessed by IHC staining in fresh ex vivo breast tumor tissue slices. […]
FIG. 9. […] 24 hours later, apoptosis was quantified by Annexin V/propidium iodide (PI) staining. EC50 values were calculated using nonlinear regression of Dose-response curves with GraphPad Prism software. […] Apoptosis was then evaluated by 5′,6,6′-tetrachloro-1,1′,3,3′-tetraethylbenzimi-dazolylcarbocyanine iodide (JC-1) dye staining, using NucleoCounter NC3000 (n=2, *p<0.05, ordinary two-way ANOVA with Tukey's multiple comparisons test). […]

B1: NP137: humanized anti-netrin-1 monoclonal antibody, VH SEQ ID NO: 22, VL SEQ ID NO: 16, human IgG1 (antibody, V domains shown)
VH: QVQLQQSGPGLVKPSQTLSLTCAISGYTFTSYNMHWVRQATGQGLEWMGAIYPGNGDTSYNQKFKGRLTISKDTSKNQVVLTMTNMDPVDTATYYCARGGTGFAYWGQG
VL: DIQMTQSPSSLSASVGDRVTITCKASQSVSNDVAWYQQKPGQAPRLLIYYASNRYTGIPPRFSGSGYGTDFTLTINNIESEDAAYYFCQQDYSSPWTFGQG
modifications: human IgG1 constant region; humanized variant; MISC_FEATURE - CDR according to IGMT
As for B1, the tumor growth result in the assay on H322 cells (H322 tumors knocked-out of COMMD2 (sgCOMMD2)) is “less sensitive”; in the assay on H322 cells (H322 tumors knocked-out of UNC5B (sgUNC5B)), “less sensitive”; in the assay with H322 cells (control H322 cells (sgLUC)) it was “strongly inhibited tumor growth”; with EMT6 cells, “no effect on tumor growth”.

The record behind these values is US20250215071A1, “Novel Mcl-1 inhibitor and combination of Mcl-1 and a BH3 mimetic, such as a Bcl-2 inhibitor” (NETRIS PHARMA, priority 2022, published 2025).
